Laboratory results: patent publication US20040116342A1 (INSTITUT PASTEUR, published 2004)
Blank lines part the entries; values can stand above or below the binder they belong to. Where no end group is shown, it is not given here.

Legend:
[1] = molecular target: T1, modified tritiated Substance P: [(3,4 3H) Pro2-Sar9-Met(O2)11]-Substance P, P20366
T1 chain: RPKPQQFFGLM

[2] = molecular target: T2, SMR1-QHNPR (SMR1-Pentapeptide)
T2 chain: QHNPR

[3] = molecular target: T3, rat Neutral EndoPeptidase 24-11 (NEP), membrane-bound, in rat tissue membrane preparations and fresh tissue … (rat, UniProt P07861 2-750); assay: cell-based or functional assay
T3 sequence (looked up): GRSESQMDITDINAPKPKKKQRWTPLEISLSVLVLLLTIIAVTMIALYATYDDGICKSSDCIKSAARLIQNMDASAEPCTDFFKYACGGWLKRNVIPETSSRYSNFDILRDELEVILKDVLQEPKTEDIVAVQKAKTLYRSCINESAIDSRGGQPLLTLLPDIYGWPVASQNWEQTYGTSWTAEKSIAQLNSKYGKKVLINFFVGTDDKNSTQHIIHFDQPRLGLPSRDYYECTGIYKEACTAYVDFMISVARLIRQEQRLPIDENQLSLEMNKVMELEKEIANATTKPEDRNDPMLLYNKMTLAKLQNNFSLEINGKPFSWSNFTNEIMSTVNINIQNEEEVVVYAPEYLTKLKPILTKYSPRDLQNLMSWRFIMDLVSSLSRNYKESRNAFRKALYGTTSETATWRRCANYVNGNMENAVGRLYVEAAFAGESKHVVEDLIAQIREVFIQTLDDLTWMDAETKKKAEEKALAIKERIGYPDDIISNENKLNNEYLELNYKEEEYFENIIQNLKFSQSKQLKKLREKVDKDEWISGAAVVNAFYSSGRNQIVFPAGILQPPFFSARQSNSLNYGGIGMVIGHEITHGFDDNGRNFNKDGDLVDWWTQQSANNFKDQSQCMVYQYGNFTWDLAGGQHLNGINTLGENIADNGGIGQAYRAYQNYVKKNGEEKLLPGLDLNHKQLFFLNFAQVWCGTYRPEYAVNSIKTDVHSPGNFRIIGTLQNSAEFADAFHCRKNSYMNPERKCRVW

[4] = molecular target: T4, purified rabbit renal NEP (rabbit, UniProt P08049 2-750, limits assumed); assay: cell-based or functional assay
T4 sequence (looked up): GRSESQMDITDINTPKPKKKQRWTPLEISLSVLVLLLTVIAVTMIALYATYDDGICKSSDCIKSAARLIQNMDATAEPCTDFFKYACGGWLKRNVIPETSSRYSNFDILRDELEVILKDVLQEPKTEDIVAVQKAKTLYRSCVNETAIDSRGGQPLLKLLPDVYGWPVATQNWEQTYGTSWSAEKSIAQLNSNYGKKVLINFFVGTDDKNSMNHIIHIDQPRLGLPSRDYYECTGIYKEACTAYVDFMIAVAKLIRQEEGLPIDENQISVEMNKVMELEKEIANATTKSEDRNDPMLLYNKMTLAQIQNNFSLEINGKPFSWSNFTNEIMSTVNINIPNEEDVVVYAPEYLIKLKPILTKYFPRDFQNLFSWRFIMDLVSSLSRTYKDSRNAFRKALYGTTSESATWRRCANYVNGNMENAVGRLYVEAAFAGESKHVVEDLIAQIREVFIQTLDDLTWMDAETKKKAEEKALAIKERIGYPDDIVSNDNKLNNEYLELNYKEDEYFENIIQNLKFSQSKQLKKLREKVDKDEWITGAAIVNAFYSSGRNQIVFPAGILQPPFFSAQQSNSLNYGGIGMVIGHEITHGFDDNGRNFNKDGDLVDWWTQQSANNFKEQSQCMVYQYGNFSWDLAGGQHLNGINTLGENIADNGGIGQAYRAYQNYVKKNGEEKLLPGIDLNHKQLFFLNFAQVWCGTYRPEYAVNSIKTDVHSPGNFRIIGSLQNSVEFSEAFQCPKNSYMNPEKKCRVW

B1: purified rabbit renal NEP (protein)
chain: T4 sequence (looked up)
- initial velocity of substance P hydrolysis by purified rabbit renal NEP (Vi) [1]: Vi=140 pM/min/µg enzyme

B2: rat Neutral EndoPeptidase 24-11 (NEP), membrane-bound, in rat tissue membrane preparations and fresh tissue slices (protein)
chain: T3 sequence (looked up)
- fold rise of the apparent Km of the enzyme for substrate (substance P), rat renal membranes [2]: raising the apparent Km of the enzyme for substrate by 2-5 fold

- IC50 (concentration of the inhibitor reducing by half the degradation of 3H-substance P) on rat spinal cord membrane preparations [3]: ~100 nM
- IC50 of inhibition of 3H substance-P degradation by rat kidney membranes [3]: 500 to 1000 nM
- inhibitory potency (IC50) with rat spinal NEP [3]: 400 nM
- inhibitory potency (IC50) with purified rabbit renal NEP and synthetic specific fluorogenic substrate [4]: 600 nM
Binder: QHNPR (also: Gln form interconverts with pGlu form by N-terminal cyclization) [SMR1-QHNPR (SMR1-Pentapeptide)]
